In patent US20080280298A1, “SATB1: A DETERMINANT OF MORPHOGENESIS AND TUMOR METASTASIS” (The Regents of the University of California, priority 2005, published 2008):

B1: SATB1-shRNA1: shRNA against the SATB1 coding region, target GGATTTGGAAGAGAGTGTC (SEQ ID NO: 8); SEQ ID NOs: 4/5, expressed from pSUPER-puro (nucleic acid)
chain 1: GATCCCCGGATTTGGAAGAGAGTGTCTTCAAGAGAGACACTCTCTTCCAAATCCTTTTTGGAAA
chain 2: AGCTTTTCCAAAAAGGATTTGGAAGAGAGTGTCTCTCTTGAAGACACTCTCTTCCAAATCCGGG
modifications: target site or template, no part of the molecule
B2: SATB1-shRNA2: shRNA against the SATB1 3′UTR, target GTCCACCTTGTCTTCTCTC (SEQ ID NO: 9); SEQ ID NOs: 6/7, expressed from pSUPER-puro (nucleic acid)
chain 1: GATCCCCGTCCACCTTGTCTTCTCTCTTCAAGAGAGAGAGAAGACAAGGTGGACTTTTTGGAAA
chain 2: AGCTTTTCCAAAAAGTCCACCTTGTCTTCTCTCTCTCTTGAAGAGAGAAGACAAGGTGGACGGG
modifications: the letters are possibly those of the target site

Columns and labels:
MDA-MB-231 cells [1] = assay: Boyden chamber invasion assay; assay type: cell-based, human; details: remaining invasiveness
Procedure: Boyden chamber assay. Boyden chamber chemo-migration assays were performed using a 24-well chemotaxis chamber (BD biosciences, Inc.). Breast cancer cells were seeded in triplicate at 50,000 cells/well onto the upper chambers with a 8 μm polycarbonate filter membrane coated with diluted Matrigel (10-25%) (BD biosciences, Inc.), and incubated at 37° C. in humidified 5% CO2 for 20 hrs. Conditioned media derived from NIH3T3 fibroblast cultures was used as a chemoattractant in the lower chambers. The migrated cells on underside of chambers were fixed in 10% (wt/vol) buffered-formalin and stained with crystal violet. After removal of cells remaining in the top chamber with a cotton swab, the numbers of cells that had migrated through the pores were assessed by light microscopy.

MDA-MB-231 cells [2] = assay: Gene expression profiling (Affymetrix and Codelink microarrays); assay type: cell-based, human; details: >1.5-fold, under both plastic and Matrigel culture, versus control shRNA
From the text: We performed gene expression profiling on MDA-MB-231 cells expressing either control shRNA or SATB1-shRNA1 grown in culture. […] We also categorized those affected genes based on the gene ontology (GO)(URL: <http//www.geneontology.org/index.shtml>) annotation.

MDA-MB-231 cells [3] = assay: Cell growth assay on plastic (2D) and Matrigel (3D); assay type: cell-based, human; details: 2D and 3D cultures up to 11 days, compared with parental cell line and control cells
From the text: Reduction of cell proliferation rate. We examined whether loss of SATB1 expression affects cancer cell proliferation by culturing SATB1-shRNA1 MDA and SATB1-shRNA2 MDA cells on plastic dish {two-dimensional (2D) culture} or on a reconstituted basement membrane derived from Engelbreth-Holm-Swarm Tumor (Matrigel™) {three-dimensional (3D) culture}.
Cell Growth Assay. […] Growth medium were renewed every 4 days. Cells were harvested by trypsin treatment, and counted at each time point using a cell counter (Beckman Coulter, Inc.; Fullerton, Calif.) and haematocytometer. […] Cells were treated with dispase (BD Biosciences, Inc.) for 2 h at 37° C. to be isolated from Matrigel, incubated with trypsin for further 5 min, and counted using a haematocytometer. […]

MDA-MB-231 cells [4] = assay: Tumor growth in mammary fat pads of athymic nude mice; assay type: in vivo, mouse; details: 6 mice, clone or pool of cells; controls formed large tumors within 39 days (6/6)
From the text: We injected control and SATB1-shRNA1 cells into the fourth mammary fat pads of athymic nude mice and monitored tumor growth.

SATB1 = SATB1 expression in MDA-MB-231 cells stably transfected with shRNA (Western blot, real-time RT-PCR); assay type: cell-based, human; details: for Expression of SATB1 was lowered by / SATB1 expression levels: MDA-MB-231 cells stably expressing the shRNA; for SATB1 expression levels: remaining expression; for SATB1 expression (in words): Western blot and quantitative RT-PCR, compared to parental MDA-MB-231 cells
Procedure: It was then tested whether suppression of SATB1 level in the highly metastatic MDA-MB-231 cells would affect their aggressiveness. Short hairpin-interfering RNAs (shRNA) were successfully designed to target SATB1 expression and are identified herein as SEQ ID NOs: 4-7.
Two shRNAs were designed according to SATB1 sequence (GenBank Accession No. NM_002971, hereby incorporated by reference) using siRNA Target Finder (Ambion, Austin, Tex.); The sequences of each oligoduplex were targeted as follows: shRNA2423, 5′-GGATTTGGAAGAGAGTGTC-3′ (SEQ ID NO: 8), or shRNA2595, 5′-GTCCACCTTGTCTTCTCTC-3′ (SEQ ID NO: 9). The oligoduplexes were cloned into the plasmid pSUPER (Oligoengine, Seattle, Wash.). Prepared DNAs were transfected into the aggressive breast cancer cell line MDA-MB-231 by lipofectamine 2000 (Invitrogen) and successfully transfected cells were selected by puromycin at 2 μg/ml or G418 at 1.5 mg/ml from 24 h after transfection. Single MDA-MB-231 cell clone stably expressing either shRNA2423 or shRNA2595 is designated SATB1-shRNA1 MDA or SATB1-shRNA2 MDA cells, respectively. For overexpression of SATB1, full length of SATB1 including 3′UTR was cloned into retroviral vector pLXSN (Clontech, Mountain View, Calif.), and the viral solution was produced using PT67 package cell lines. Hs578T cells were infected with this viral solution, and stably infected cells were selected by G418 at 0.8 mg/ml for 5 days. The status of SATB1 level in manipulated MDA-MB-231 and Hs578T cells were examined by Western blot and real-time RT-PCR.
To evaluate the change of gene expression level depending on SATB1 status, semi-quantitative or real-time RT-PCR analysis of selected genes was performed (primer sequences are available upon request). Total RNA was extracted for cell lines using TR1 reagent (Sigma) followed by RNA clean-up with RNeasy Mini kit (Qiagen, Valencia, Calif.). For semi-quantitative RT-PCR, 5 μg of total RNA was reverse-transcribed into single stranded cDNA using Superscript II RNaseH-reverse transcriptase (Invitrogen) according to the protocol supplied with the kit. PCR cycle was controlled starting from 25 to 40 cycles upon gene-specific primers (20 ng of cDNA/reaction). Each cycle consisted of the following steps, using GeneAmp PCR system 9700 (PerkinElmer Inc., Fremont, Calif.); 94° C. for 30 s, 55° C. for 30 s, and 72° C. for 60 s. PCR products were separated on 1.5% agarose gels and visualized them by staining with ethidium bromide. SYBR Green PCR Core Reagents system was used for real-time monitoring of amplification on ABI 7500 Fast Real-time PCR System (Applied Biosystems, Foster City, Calif.). Absolute quantification method was employed to quantify target DNA fragments in triplicate with following cycling condition; 95° C. for 2 min, followed by 40 cycles of 95° C. for 3 s and 60° C. for 30 s.

MDA-MB-231 cells [5] = assay: Cell morphology and immunostaining in 3D Matrigel culture; assay type: cell-based, human; details: F-actin, β-catenin, integrin α6 immunostaining
Procedure: Changes in cell morphology. Referring now to FIG. 5, phase contrast micrographs of MDA-MB-231 control cells (control shRNA) or SATB1-shRNA1 MDA cells (SATB1-shRNA1) cultured on plastic (2D) and matrigel (3D) are shown. Major differences in cell morphology were observed when SATB1-shRNA1 MDA cells were grown in 3D culture, compared to control cells. The cell morphology was changed from stellate-like scattered (MDA-MB-231 with control shRNA) to spherical structures (MDA-MB-231 with SATB1-shRNA). […] In addition, MDA-MB-231 cells expressing SATB1-shRNA were able to basally deposit and organize a basement membrane on Matrigel, showing the characteristic acini formation, even though there was a minor difference in morphology as observed in MCF10A control cells.
Immunostaining of cells in culture. Total 1×10^4 cells mixed with Matrigel (5 mg/mL) were plated in 6-well plates pre-coated in a thick layer (1 mm) of Matrigel. Solidified Matrigel was overlaid with Growth medium (DMEM), and renewed at every 4 days. Colony formation and cell morphology was observed under light microscopy after 3 days to 14 days.
Cells were fixed in 4% paraformaldehyde, permeablized in 0.1% Triton X100, and blocked in 5% BSA. […] Staining was detected with secondary Alexa Fluor 488 and/or Alexa Fluor 594 Abs (Molecular Probes). […]

MDA-MB-231 cells [6] = assay: Experimental metastasis assay, tail vein injection into athymic mice, lung nodules; assay type: in vivo, mouse; details: 1×10^6 cells i.v., nine weeks, six mice
Procedure: The removal of SATB1 from MDA-MB-231 (aggressive) cells diminished metastatic activity: SATB1-shRNA1 MDA, SATB1-shRNA2 MDA, and control cells (1×10^6 cells) were injected intravenously into the lateral tail vein of 6-week-old athymic mice to evaluate metastasis of these cancer cell lines to lung. In mice, the metastasis of orthotopically grown tumors derived from human MDA-MB-231 cells is a relatively rare event. Therefore, by directly introducing cells into the circulation, we examined the requirement of SATB1 in cancer cell survival in circulation and extravasation to and growth in the lung. By nine weeks after tumor-cell injection, the lungs of mice injected with the control cells had formed numerous nodules, ranging in number from 125 to 160 per lung in all six mice analyzed (FIG. 11a,b). […]
1×10^6 cells MDA-MB-231 cells expressing control-shRNA, SATB1-shRNA1 or SATB1-shRNA2 MDA cells were injected into the tail veins of each mouse, and lungs were examined for metastatic nodules (arrows) 9 weeks later. […] In FIG. 11b, total numbers of metastatic lung nodules from individual mice were counted under a dissection microscope. For lungs of representative mice indicated, human SATB1 expression levels in human breast cancer cells colonized in lungs were analyzed by RT-PCR using human GAPDH as a loading control, with the use of human SATB1 and GAPDH specific oligomers. […]

Row | Molecule | invasiveness compared with host MDA-MB-231 cells (MDA-MB-231 cells [1]) | downregulated genes upon SATB1 depletion (Tree 1) (MDA-MB-231 cells [2]) | upregulated genes upon SATB1 depletion (Tree 2) (MDA-MB-231 cells [2]) | proliferation rates (MDA-MB-231 cells [3]) | tumor growth in mammary fat pads (MDA-MB-231 cells [4]) | Expression of SATB1 was lowered by (SATB1) | SATB1 expression levels (SATB1) | SATB1 expression (in words) (SATB1) | cell morphology in 3D culture (MDA-MB-231 cells [5]) | lung metastases observed (in words) (MDA-MB-231 cells [6]) | number of lung metastases (nodules per lung) (MDA-MB-231 cells [6]; control cells 125 to 160 per lung)
1 | B1 | 20% | 409 genes | 456 genes | significantly reduced | either no tumors or greatly reduced tumor growth | 70% | 30.4%±3.7 | greatly reduced | organized and polarized morphology, forming acinus-like structures | – | –
2 | B2 | 20% | – | – | significantly reduced | – | 90% | 12.5%±5.2 | greatly reduced | organized and polarized morphology, forming acinus-like structures | not observed in five out of six mice | five
